{"source": "paper PMC11721464", "molecular_target": "Zika virus prM/E heterodimer of the immature virion (Zika virus strain MR-766)", "experiment": "cryo-EM structure; immature ZIKV MR-766 virions purified from NH4Cl-treated Vero E6 cells, neutral pH (TNE buffer, pH 7.4); icosahedral symmetry enforced, 8.3 Å map; homology model of prM/E (template SPOV PDB 6ZQI) fitted and refined in real space", "data": [{"substance": "Zika virus prM/E heterodimer of the immature virion (complex)", "values": [{"measurement": "stoichiometry N", "value": 3}]}]}
